The Immune Epitope Database (IEDB)
Values belong to the sequence of their own block, whether it stands above or below them.

Tests used:
HLA-C*06:02 = assay: IEDB peptide-MHC binding, purified MHC/direct/fluorescence; filed as Kd, often an IC50 or EC50 that approximates it; ≥ and ≤ were set here for values at or beyond the usual limits of such assays; settings: source organism: Toxoplasma gondii
HLA-C*14:02 = assay: as above
HLA-C*15:02 = assay: as above
HLA-A*02:12 [1] = assay: IEDB peptide-MHC binding, purified MHC/competitive/fluorescence; filed as Kd, often an IC50 or EC50 that approximates it; ≥ and ≤ were set here for values at or beyond the usual limits of such assays; settings: source organism: Toxoplasma gondii
HLA-A*02:19 [2] = assay: as above; settings: source organism: Toxoplasma gondii
HLA-A*03:01 [3] = assay: as above; settings: source organism: Toxoplasma gondii
HLA-A*26:01 [4] = assay: as above; settings: source organism: Toxoplasma gondii
HLA-A*31:01 [5] = assay: as above; settings: source organism: Toxoplasma gondii
HLA-B*18:01 [6] = assay: as above; settings: source organism: Toxoplasma gondii
HLA-B*27:03 [7] = assay: as above; settings: source organism: Toxoplasma gondii
HLA-B*39:01 [8] = assay: as above; settings: source organism: Toxoplasma gondii
HLA-A*01:01 = assay: IEDB peptide-MHC binding, purified MHC/direct/fluorescence; filed as Kd, often an IC50 or EC50 that approximates it; ≥ and ≤ were set here for values at or beyond the usual limits of such assays
HLA-A*02:01 = assay: as above
HLA-A*03:01 [9] = assay: as above
HLA-A*31:01 [10] = assay: as above
HLA-A*69:01 = assay: as above; settings: source organism: Lassa virus Josiah
HLA-B*07:02 = assay: as above
HLA-B*15:01 = assay: as above
HLA-B*15:09 = assay: as above
HLA-B*27:05 [11] = assay: as above
HLA-B*39:01 [12] = assay: as above
HLA-B*40:01 [13] = assay: as above
HLA-B*44:02 = assay: as above
HLA-B*46:01 = assay: as above
HLA-B*48:01 = assay: as above; settings: source organism: Lassa virus Josiah
HLA-B*57:01 = assay: as above
HLA-B*58:01 = assay: as above
HLA-B*40:01 [14] = assay: IEDB peptide-MHC binding, purified MHC/competitive/fluorescence; filed as Kd, often an IC50 or EC50 that approximates it; ≥ and ≤ were set here for values at or beyond the usual limits of such assays
HLA-A*24:02 [15] = assay: as above
HLA-A*02:03 = assay: IEDB peptide-MHC binding, purified MHC/direct/fluorescence; filed as Kd, often an IC50 or EC50 that approximates it; ≥ and ≤ were set here for values at or beyond the usual limits of such assays; settings: source organism: Influenza A virus (A/Taiwan/2/2006(H1N1))
HLA-A*02:06 = assay: as above; settings: source organism: Influenza A virus (A/Taiwan/2/2006(H1N1))
HLA-A*02:11 = assay: as above
HLA-A*02:12 [16] = assay: as above
HLA-A*11:01 = assay: as above; settings: source organism: Influenza A virus (A/camel/Mongolia/1982(H1N1))
HLA-A*24:02 [17] = assay: as above; settings: source organism: Influenza A virus (A/camel/Mongolia/1982(H1N1))
HLA-B*08:01 = assay: as above; settings: source organism: Influenza A virus (A/camel/Mongolia/1982(H1N1))
HLA-B*18:01 [18] = assay: as above
HLA-C*07:02 = assay: as above
HLA-B*27:05 [19] = assay: IEDB peptide-MHC binding, purified MHC/competitive/fluorescence; filed as Kd, often an IC50 or EC50 that approximates it; ≥ and ≤ were set here for values at or beyond the usual limits of such assays
HLA-A*02:19 [20] = assay: IEDB peptide-MHC binding, purified MHC/direct/fluorescence; filed as Kd, often an IC50 or EC50 that approximates it; ≥ and ≤ were set here for values at or beyond the usual limits of such assays; settings: source organism: Yersinia enterocolitica subsp. enterocolitica 8081
HLA-A*24:03 = assay: as above; settings: source organism: Yersinia enterocolitica subsp. enterocolitica 8081
HLA-B*15:17 = assay: as above; settings: source organism: Yersinia enterocolitica subsp. enterocolitica 8081
HLA-B*27:03 [21] = assay: as above; settings: source organism: Yersinia enterocolitica subsp. enterocolitica 8081
HLA-A*26:02 = assay: as above
HLA-A*26:01 [22] = assay: as above; settings: source organism: Vibrio cholerae V52
[23] = source organism: Toxoplasma gondii
[24] = source organism: Lassa virus Josiah
[25] = source organism: Influenza A virus (A/camel/Mongolia/1982(H1N1))
[26] = source organism: Influenza A virus (A/Taiwan/2/2006(H1N1))
[27] = source organism: Influenza A virus (A/Harbin/1/1988(H1N2))
[28] = source organism: Yersinia enterocolitica subsp. enterocolitica 8081
[29] = source organism: Vibrio vulnificus YJ016

Sequence: RTWFYRTEF
Kd (HLA-C*06:02): ≥ 20 µM | Kd (HLA-C*14:02; [23]): 0.153 µM | Kd (HLA-C*15:02; [23]): 0.127 µM | Kd (HLA-A*02:12 [1]): ≥ 20 µM | Kd (HLA-A*02:19 [2]): ≥ 20 µM | Kd (HLA-A*03:01 [3]): ≥ 20 µM | Kd (HLA-A*26:01 [4]): ≥ 20 µM | Kd (HLA-A*31:01 [5]): 0.0262 µM | Kd (HLA-B*18:01 [6]): ≥ 20 µM | Kd (HLA-B*27:03 [7]): ≥ 20 µM | Kd (HLA-B*39:01 [8]): ≥ 20 µM

Sequence: NHYLCLNCL
Kd (HLA-A*01:01; [24]): ≥ 20 µM | Kd (HLA-A*02:01; [24]): ≥ 20 µM | Kd (HLA-A*03:01 [9]; [24]): ≥ 20 µM | Kd (HLA-A*31:01 [10]; [24]): ≥ 20 µM | Kd (HLA-A*69:01): ≥ 20 µM | Kd (HLA-B*07:02; [24]): ≥ 20 µM | Kd (HLA-B*15:01; [24]): ≥ 20 µM | Kd (HLA-B*15:09; source organism: Mammarenavirus lassaense): 0.431 µM | Kd (HLA-B*27:05 [11]; [24]): ≥ 20 µM | Kd (HLA-B*39:01 [12]; [24]): 0.026 µM | Kd (HLA-B*40:01 [13]; [24]): ≥ 20 µM | Kd (HLA-B*44:02; [24]): ≥ 20 µM | Kd (HLA-B*46:01; [24]): ≥ 20 µM | Kd (HLA-B*48:01): ≥ 20 µM | Kd (HLA-B*57:01; [24]): ≥ 20 µM | Kd (HLA-B*58:01; [24]): ≥ 20 µM

Sequence: LEVSFGSVI
Kd (HLA-B*40:01 [14]; source organism: Salmonella enterica subsp. enterica serovar Typhi): 0.0035 µM

Sequence: RLGKGYMF
Kd (HLA-A*24:02 [15]; source organism: Influenza A virus (A/Fort Monmouth/1/1947-mouse adapted(H1N1))): 0.0326 µM

Sequence: ELDEIGEDV
Kd (HLA-A*01:01; [25]): ≥ 20 µM | Kd (HLA-A*02:01; source organism: Influenza A virus (A/Puerto Rico/8/34/Mount Sinai(H1N1))): 2.44 µM | Kd (HLA-A*02:03): ≥ 5 µM | Kd (HLA-A*02:06): ≥ 20 µM | Kd (HLA-A*02:11; [26]): 0.134 µM | Kd (HLA-A*02:12 [16]; [26]): 1.5 µM | Kd (HLA-A*03:01 [9]; [25]): ≥ 20 µM | Kd (HLA-A*11:01): ≥ 20 µM | Kd (HLA-A*24:02 [17]): ≥ 20 µM | Kd (HLA-A*31:01 [10]; [25]): ≥ 20 µM | Kd (HLA-B*07:02; [25]): ≥ 20 µM | Kd (HLA-B*08:01): ≥ 20 µM | Kd (HLA-B*15:01; [25]): ≥ 20 µM | Kd (HLA-B*15:09; [26]): ≥ 20 µM | Kd (HLA-B*18:01 [18]; [25]): ≥ 20 µM | Kd (HLA-B*27:05 [11]; [25]): ≥ 20 µM | Kd (HLA-B*40:01 [13]; [25]): ≥ 20 µM | Kd (HLA-B*44:02; [25]): ≥ 20 µM | Kd (HLA-B*46:01; [25]): ≥ 20 µM | Kd (HLA-B*58:01; [25]): ≥ 20 µM

Sequence: GRINYYWTL
Kd (HLA-C*07:02; [27]): 0.025 µM | Kd (HLA-B*27:05 [19]; [27]): 0.049 µM

Kd (HLA-B*40:01 [14]; source organism: Escherichia coli B7A): 0.0878 µM
Sequence: GEINGEHVP

Sequence: YIYDGKVNY
Kd (HLA-A*02:11; [28]): ≥ 20 µM | Kd (HLA-A*02:12 [16]; [28]): ≥ 20 µM | Kd (HLA-A*02:19 [20]): ≥ 20 µM | Kd (HLA-A*24:03): ≥ 20 µM | Kd (HLA-B*15:17): 0.003 µM | Kd (HLA-B*18:01 [18]; [28]): ≥ 20 µM | Kd (HLA-B*27:03 [21]): ≥ 20 µM | Kd (HLA-B*39:01 [12]; [28]): ≥ 20 µM | Kd (HLA-B*57:01; [28]): ≥ 20 µM

Sequence: EVHTWTEQY
Kd (HLA-A*26:02; source organism: dengue virus type 3): ≤ 0.001 µM

Sequence: TRVTNNVYL
Kd (HLA-B*15:09; source organism: Variola virus): 4.06 µM | Kd (HLA-B*39:01 [12]; source organism: Camelpox virus M-96): 0.0198 µM

Kd (HLA-B*40:01 [14]; source organism: Escherichia coli E22): 0.0055 µM
Sequence: LEALSPPLL

Sequence: YYGRWVHEF
Kd (HLA-C*07:02; [29]): 0.046 µM | Kd (HLA-C*14:02; [29]): 0.025 µM | Kd (HLA-C*15:02; [29]): ≥ 20 µM | Kd (HLA-A*24:02 [15]; [29]): ≤ 0.0001 µM

Kd (HLA-B*27:05 [19]; source organism: Escherichia coli 536): ≥ 20 µM
Sequence: AREIRDQGY

Sequence: DIIWHLNDL
Kd (HLA-A*26:01 [22]): 0.479 µM | Kd (HLA-A*26:02; source organism: Vibrio cholerae V52): 0.003 µM
